This is an account of results in the supplement of paper PMC10567573.

First the molecules themselves.
B1: FCHO1 (parent)
chain: FSDPSQSDPETKDFWLNMAALTEA
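Also: lentivirally expressed fusions sorted by FACS into six bins by GFP to DsRed ratio, PSI derived from sequencing read proportions per bin multiplied by bin number.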

The series covers variants of B1. Nature of the series: protein stability index of a GFP-peptide fusion (GPS, HEK-293T) (PSI 1-6); higher = more stable. The conditions noted are these: c terminus: a fixed tail appended.
As to FSDPSCSDPETKDFWLNMAALTEA [Q6C], the protein stability index was 2.64.
Regarding FSDPSFSDPETKDFWLNMAALTEA [Q6F], the protein stability index stood at 2.65.
In the case of FSDPSKSDPETKDFWLNMAALTEA [Q6K] it was 2.52; in that of FSDPSASDPETKDFWLNMAALTEA [Q6A], 2.91; in that of FSDPSRSDPETKDFWLNMAALTEA [Q6R], 2.44.
With FSDPSVSDPETKDFWLNMAALTEA [Q6V], the protein stability index came to 2.85.
Next, FSDPSQSDPETKDFWLNMAASTEA [L21S]: 2.62; FSDPSQSDPETKDFWLNMAANTEA [L21N]: 2.88; FSDPSQSDPETKDFWLNMAAWTEA [L21W]: 1.73.
In the case of FSDPSQSDPETKDFWLNMAAVTEA [L21V] it was 2.58.
In the case of FSDPSQSDPETKDFWLNMAAGTEA [L21G] it was 2.52; in that of FSDPSQSDPETKDFWLNMAAETEA [L21E], 3.9.
In the case of FSDPSQSDPETKDFWLNMAAPTEA [L21P], the protein stability index is 2.32.
In the case of FSDPSQSDPETKDFWLNMAAFTEA [L21F] it was 2.1; in that of FSDPSQSDPETKDFWLNMNALTEA [A19N], 2.41.
In the case of FSDPSQSDPETKDFWLNMYALTEA [A19Y] it was 2.7; in that of FSDPSQSDPETKDFWLNMDALTEA [A19D], 2.53.
Next, FSDPSQSDPETKDFWLNMWALTEA [A19W]: 2.09.
With FSDPSQSDPETKDFWLNMFALTEA [A19F], the protein stability index was determined as 2.18.
Next, FSDPSQSDPETKDFWLNMQALTEA [A19Q]: 3.02; FSDPSQSDPETKDFWLNMMALTEA [A19M]: 2.54; FSDPSQSDPETKDFWLNMVALTEA [A19V]: 2.25.
For the variant FSDPSQSDPETKDFWLNMPALTEA [A19P], the protein stability index stood at 2.7.
In the case of FSSPSQSDPETKDFWLNMAALTEA [D3S] it was 2.38.
Next, FSTPSQSDPETKDFWLNMAALTEA [D3T]: 1.74; FSGPSQSDPETKDFWLNMAALTEA [D3G]: 1.74.
In the case of FSQPSQSDPETKDFWLNMAALTEA [D3Q] it was 2.08.
FSRPSQSDPETKDFWLNMAALTEA [D3R]: the protein stability index was determined as 2.06.
Next, FSCPSQSDPETKDFWLNMAALTEA [D3C]: 2.23; FSEPSQSDPETKDFWLNMAALTEA [D3E]: 2.73; FSIPSQSDPETKDFWLNMAALTEA [D3I]: 1.71.
In the case of FSFPSQSDPETKDFWLNMAALTEA [D3F] it was 2.1; in that of FSDPSQSDPETKDFWLNNAALTEA [M18N], 3.55.
Turning to FSDPSQSDPETKDFWLNKAALTEA [M18K], the protein stability index turned out to be 2.91.
Next, FSDPSQSDPETKDFWLNIAALTEA [M18I]: 2.37.
Next, FSDPSQSDPETKDFWLNLAALTEA [M18L]: 2.57; FSDPSQSDPETKDFWLNHAALTEA [M18H]: 3.22; FSDPSQSDPETKDFWLNEAALTEA [M18E]: 3.98.
Next, FSDPSQSDPETKDFWLNQAALTEA [M18Q]: 3.77; FSDPSQSDPETKDFWLNMAALTTA [E23T]: 2.79; FSDPSQSDPETKDFWLNMAALTNA [E23N]: 2.58.
Turning to FSDPSQSDPETKDFWLNMAALTCA [E23C], the protein stability index was determined as 1.63.
Next, FSDPSQSDPETKDFWLNMAALTHA [E23H]: 2.17; FSDPSQSDPETKDFWLNMAALTYA [E23Y]: 2.1; FSDPSQSDPETKDFWLNMAALTSA [E23S]: 2.23.
Next, FSDPSQSDPETKDFWLNMAALTPA [E23P]: 2.33; FSDPSQSDPETKDFWLNMAALTDA [E23D]: 2.75; FSDPSQSDPETKDFWLNMAALTAA [E23A]: 2.15.
In the case of FSDPSQSDPETKDFWLNMAALTVA [E23V] it was 2.24.
For the variant FSDPSQSDPETKDFWLNMAALTWA [E23W], the protein stability index came to 2.04.
Consider FSDYSQSDPETKDFWLNMAALTEA [P4Y], for which the protein stability index amounted to 1.85.
In the case of FSDTSQSDPETKDFWLNMAALTEA [P4T] it was 2.23.
Next, FSDVSQSDPETKDFWLNMAALTEA [P4V]: 2.65; FSDCSQSDPETKDFWLNMAALTEA [P4C]: 1.99.
Consider FSDFSQSDPETKDFWLNMAALTEA [P4F], for which the protein stability index was found to be 2.16.
Next, FSDWSQSDPETKDFWLNMAALTEA [P4W]: 1.85; FSDESQSDPETKDFWLNMAALTEA [P4E]: 3.37.
Next, FSDISQSDPETKDFWLNMAALTEA [P4I]: 3.33; FSDQSQSDPETKDFWLNMAALTEA [P4Q]: 2.67; FSDPSQSDEETKDFWLNMAALTEA [P9E]: 4.01.
In the case of FSDPSQSDTETKDFWLNMAALTEA [P9T] it was 3.19; in that of FSDPSQSDLETKDFWLNMAALTEA [P9L], 2.77.
As for FSDPSQSDDETKDFWLNMAALTEA [P9D], the protein stability index turned out to be 3.7.
In the case of FSDPSQSDMETKDFWLNMAALTEA [P9M] it was 3.39; in that of FSDPSQSDAETKDFWLNMAALTEA [P9A], 3.12; in that of FSDPSQSDQETKDFWLNMAALTEA [P9Q], 3.27.
On to FSDPSQSDKETKDFWLNMAALTEA [P9K], for which the protein stability index came out at 3.05.
In the case of FSDPSQSDVETKDFWLNMAALTEA [P9V] it was 3.54; in that of FSDPSQKDPETKDFWLNMAALTEA [S7K], 2.8; in that of FSDPSQCDPETKDFWLNMAALTEA [S7C], 2.9.
In the case of FSDPSQQDPETKDFWLNMAALTEA [S7Q] it was 3.18; in that of FSDPSQIDPETKDFWLNMAALTEA [S7I], 2.38; in that of FSDPSQMDPETKDFWLNMAALTEA [S7M], 3.55.
With FSDPSQLDPETKDFWLNMAALTEA [S7L], the protein stability index came to 2.65.
In the case of FSDPSQPDPETKDFWLNMAALTEA [S7P] it was 3.92.
Next, FSDPSQVDPETKDFWLNMAALTEA [S7V]: 3.29; FSDPSQDDPETKDFWLNMAALTEA [S7D]: 3.73.
Next, FSDPSQGDPETKDFWLNMAALTEA [S7G]: 2.6.
As to PSDPSQSDPETKDFWLNMAALTEA [F1P], the protein stability index stood at 4.8.
Next, QSDPSQSDPETKDFWLNMAALTEA [F1Q]: 4.72; WSDPSQSDPETKDFWLNMAALTEA [F1W]: 4.1; ASDPSQSDPETKDFWLNMAALTEA [F1A]: 4.73.
In the case of MSDPSQSDPETKDFWLNMAALTEA [F1M], the protein stability index amounted to 4.18.
In the case of FSDPSQSDPETKDFWLNMAVLTEA [A20V], the protein stability index amounted to 2.19.
In the case of FSDPSQSDPETKDFWLNMACLTEA [A20C] it was 2.34.
Next, FSDPSQSDPETKDFWLNMAMLTEA [A20M]: 2.85.
In the case of FSDPSQSDPETKDFWLNMANLTEA [A20N] it was 2.86.
For the variant FSDPSQSDPETKDFWLNMALLTEA [A20L], the protein stability index is 2.31.
In the case of FSDPSQSDPETKDFWLNMATLTEA [A20T] it was 2.71; in that of FSDPSQSDPETKDFWLNMARLTEA [A20R], 2.81.
In the case of FSDPSQSDPETKDFWLNMASLTEA [A20S] it was 2.94; in that of FSDPSQSDPETKDFWLNMADLTEA [A20D], 3.25; in that of FSDPSQSDPETKDFWLNMAYLTEA [A20Y], 2.44.
Next, FSDPSQSDPETKDFWLNMAFLTEA [A20F]: 2.24.
